Test results published in publication PMC4721966.
Values belong to the substance of their own block, whether it stands above or below them.

Assays:
[1] = molecular target: PtAu1aLOV, LOV domain of PtAu1a containing its N- and C-terminal α-helical extensions A´α and Jα (Phaeodactylum tricornutum); assay: MST; dark; Monolith NT.115; 20 nM DY-647-labelled PtAu1aLOV with a 1:2 dilution series of unlabelled PtAu1aLOV; 20 mM HEPES pH 7.5, 100 mM NaCl, 10% glycerol; dimer to monomers
[2] = molecular target: PtAu1aLOV, LOV domain of PtAu1a containing its N- and C-terminal α-helical extensions A´α and Jα (Phaeodactylum tricornutum); assay: SEC-MALS; light: pre-incubated at 20°C under continuous blue light (400 µW cm^-2 at 450 nm) for 20 min; 100 µl of 150 µM protein on Superdex 200 10/300 GL in buffer C, RT, column continuously illuminated; monomer-dimer
[3] = system: Aureochrome 1a full length (PtAu1afull) (Phaeodactylum tricornutum); assay: EMSA; conditions: 10 mM MgCl2, EMSA: 50 nM DNA in buffer C (20 mM HEPES pH 7.5, 100 mM NaCl, 10 mM MgCl2, 5% glycerol) plus 5% glycerol, 20 min at RT, dark or blue light (450 nm), 10% TGE …
[4] = molecular target: Aureochrome 1a from Phaeodactylum tricornutum, full-length protein (PtAu1a_(full)) (Phaeodactylum tricornutum); assay: SEC-MALS; dark: pre-incubated at 20°C in the dark for 20 min; 100 µl of 150 µM protein on Superdex 200 10/300 GL in buffer C (20 mM HEPES pH 7.5, 100 mM NaCl, 10 mM MgCl2, 5% glycerol), RT, column kept in the dark; monomer-dimer
[5] = molecular target: Aureochrome 1a from Phaeodactylum tricornutum, full-length protein (PtAu1a_(full)) (Phaeodactylum tricornutum); assay: SEC-MALS; light: pre-incubated at 20°C under continuous blue light (400 µW cm^-2 at 450 nm) for 20 min; 100 µl of 150 µM protein on Superdex 200 10/300 GL in buffer C, RT, column continuously illuminated; monomer-dimer
[6] = molecular target: PtAu1a_(bZIP-LOV), truncated PtAu1a variant encompassing the bZIP and LOV domain (Phaeodactylum tricornutum); assay: SEC-MALS; dark: pre-incubated at 20°C in the dark for 20 min; 100 µl of 150 µM protein on Superdex 200 10/300 GL in buffer C (20 mM HEPES pH 7.5, 100 mM NaCl, 10 mM MgCl2, 5% glycerol), RT, column kept in the dark; monomer-dimer
[7] = molecular target: PtAu1a_(bZIP-LOV), truncated PtAu1a variant encompassing the bZIP and LOV domain (Phaeodactylum tricornutum); assay: SEC-MALS; light: pre-incubated at 20°C under continuous blue light (400 µW cm^-2 at 450 nm) for 20 min; 100 µl of 150 µM protein on Superdex 200 10/300 GL in buffer C, RT, column continuously illuminated; monomer-dimer

Kd [1]: 13.6 µM
stoichiometry N [2]: 2
Substance: PtAu1aLOV, LOV domain of PtAu1a containing its N- and C-terminal α-helical extensions A´α and Jα (domain or fragment)

Substance: TGTAGCGTCTGACGTGGTTCCCAC (double strand) [24-bp dsCYC2 promoter probe]
K half ([3]; continuous blue light, EC50, Hill coefficient 1.65): 90 nM
K half ([3]; dark, EC50, Hill coefficient 1.35): 860 nM

stoichiometry N [4]: 2
stoichiometry N [5]: 2
Substance: Aureochrome 1a from Phaeodactylum tricornutum, full-length protein (PtAu1a_(full)) (natural protein)

stoichiometry N [6]: 2
stoichiometry N [7]: 2
Substance: PtAu1a_(bZIP-LOV), truncated PtAu1a variant encompassing the bZIP and LOV domain (domain or fragment)
